{"source": "patent US20090286279", "key": {"[1]": {"target": "sulfo-hirudin ([Leu^1, Thr^2]-hirudin with sulfotyrosine at position 63, expressed in E. coli from pBAD-HirudinTAG) (UniProt P01050)"}, "[2]": {"target": "[Leu^1, Thr^2]-63-desulfo-hirudin (Lepirudin (Refludan)) (UniProt P01050)"}}, "data": [{"substance": "human α-thrombin (Diapharma)", "values": [{"measurement": "thrombin activity (cleavage of fluorogenic substrate Boc-Asp(OBzl)-Pro-Arg-MCA, fluorescence intensity over time)", "setting": "[1]", "value": "Cleavage of the fluorogenic substrate by thrombin, whose activity is inhibited to different degrees by sulfo-hirudin and desulfo-hirudin"}, {"measurement": "thrombin activity (cleavage of fluorogenic substrate Boc-Asp(OBzl)-Pro-Arg-MCA, fluorescence intensity over time)", "setting": "[2]", "value": "Cleavage of the fluorogenic substrate by thrombin, whose activity is inhibited to different degrees by sulfo-hirudin and desulfo-hirudin"}]}]}
